Measurements from PMC2610422.

Target: transmembrane glycoprotein gp41 of HIV-1 strain BaL, in the native spike on virions (HIV-1 strain BaL)
Test: cryo-EM structure

With “transmembrane glycoprotein gp41 of HIV-1 strain BaL, in the native spike on virions (natural protein)” the stoichiometry N was 3.
